Assay results taken from publication PMC2173740 (The Journal of Cell Biology, 2003).
Several values for one entry are separate records, joined by “and”; a condition that tells them apart may be missing. Equal entries are not always repeated.

T1: Toc75 (pea (endogenous in pea chloroplast …, UniProt Q43715 132-809))
T1 sequence (looked up): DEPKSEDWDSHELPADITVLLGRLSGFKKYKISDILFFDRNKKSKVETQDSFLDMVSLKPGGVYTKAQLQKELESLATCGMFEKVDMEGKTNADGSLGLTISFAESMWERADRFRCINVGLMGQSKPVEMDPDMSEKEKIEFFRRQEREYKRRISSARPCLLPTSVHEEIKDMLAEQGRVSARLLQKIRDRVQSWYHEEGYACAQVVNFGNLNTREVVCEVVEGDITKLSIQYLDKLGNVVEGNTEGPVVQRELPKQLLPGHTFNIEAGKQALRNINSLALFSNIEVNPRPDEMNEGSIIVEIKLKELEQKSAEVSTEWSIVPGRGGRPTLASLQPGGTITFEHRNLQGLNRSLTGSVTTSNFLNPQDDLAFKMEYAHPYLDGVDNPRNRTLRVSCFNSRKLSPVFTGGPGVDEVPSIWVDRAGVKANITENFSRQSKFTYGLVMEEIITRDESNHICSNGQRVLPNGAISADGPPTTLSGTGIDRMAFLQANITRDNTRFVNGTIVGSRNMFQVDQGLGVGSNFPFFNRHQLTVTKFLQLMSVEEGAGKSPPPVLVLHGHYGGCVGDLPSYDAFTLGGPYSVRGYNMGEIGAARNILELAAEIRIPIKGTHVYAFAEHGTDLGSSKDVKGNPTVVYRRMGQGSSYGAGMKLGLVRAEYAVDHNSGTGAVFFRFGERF


Columns and labels:
[1] = target: 86-kD fragment of Toc159 (pea (endogenous in pea chloroplast outer envelope)); assay: subunit quantification by immunoblot
[2] = target: 86-kD fragment of Toc159 (pea (endogenous in pea chloroplast outer envelope)); assay: subunit quantification by Coomassie staining
[3] = target: 86-kD fragment of Toc159 (pea (endogenous in pea chloroplast outer envelope)); assay: subunit quantification by radioactive NEM labelling of cysteines
Toc75 = target: T1, Toc75; assay: co-sedimentation

stoichiometry N (molecules per Toc159) [1]	stoichiometry N (molecules per Toc159) [2]	stoichiometry N (molecules per Toc159) [3]	binding result (Toc75)	Binder
4 to 5	4	4	–	Toc75 (natural protein) DEPKSEDWDSHELPADITVLLGRLSGFKKYKISDILFFDRNKKSKVETQDSFLDMVSLKPGGVYTKAQLQKELESLATCGMFEKVDMEGKTNADGSLGLTISFAESMWERADRFRCINVGLMGQSKPVEMDPDMSEKEKIEFFRRQEREYKRRISSARPCLLPTSVHEEIKDMLAEQGRVSARLLQKIRDRVQSWYHEEGYACAQVVNFGNLNTREVVCEVVEGDITKLSIQYLDKLGNVVEGNTEGPVVQRELPKQLLPGHTFNIEAGKQALRNINSLALFSNIEVNPRPDEMNEGSIIVEIKLKELEQKSAEVSTEWSIVPGRGGRPTLASLQPGGTITFEHRNLQGLNRSLTGSVTTSNFLNPQDDLAFKMEYAHPYLDGVDNPRNRTLRVSCFNSRKLSPVFTGGPGVDEVPSIWVDRAGVKANITENFSRQSKFTYGLVMEEIITRDESNHICSNGQRVLPNGAISADGPPTTLSGTGIDRMAFLQANITRDNTRFVNGTIVGSRNMFQVDQGLGVGSNFPFFNRHQLTVTKFLQLMSVEEGAGKSPPPVLVLHGHYGGCVGDLPSYDAFTLGGPYSVRGYNMGEIGAARNILELAAEIRIPIKGTHVYAFAEHGTDLGSSKDVKGNPTVVYRRMGQGSSYGAGMKLGLVRAEYAVDHNSGTGAVFFRFGERF
4 and 6	4 to 6	4 to 5	binds	Toc34 (natural protein, UniProt Q41009 1-310, looked up) MASQQQTVREWSGINTFAPATQTKLLELLGNLKQEDVNSLTILVMGKGGVGKSSTVNSIIGERVVSISPFQSEGPRPVMVSRSRAGFTLNIIDTPGLIEGGYINDMALNIIKSFLLDKTIDVLLYVDRLDAYRVDNLDKLVAKAITDSFGKGIWNKAIVALTHAQFSPPDGLPYDEFFSKRSEALLQVVRSGASLKKDAQASDIPVVLIENSGRCNKNDSDEKVLPNGIAWIPHLVQTITEVALNKSESIFVDKNLIDGPNPNQRGKLWIPLIFALQYLFLAKPIEALIRRDIATETKPAWETRDVGDRK
